We go through five molecules from US8980604B2 (priority 2009, dated 2015).

Numbering of substitutions follows the chain as printed. Names may count otherwise.

For data set [1], the target named is T1, E. coli glycerol dehydrogenase (GlyDH, GldA), native (wild type) (Escherichia coli, UniProt P0A9S5).
T1 sequence (P0A9S5 1-367): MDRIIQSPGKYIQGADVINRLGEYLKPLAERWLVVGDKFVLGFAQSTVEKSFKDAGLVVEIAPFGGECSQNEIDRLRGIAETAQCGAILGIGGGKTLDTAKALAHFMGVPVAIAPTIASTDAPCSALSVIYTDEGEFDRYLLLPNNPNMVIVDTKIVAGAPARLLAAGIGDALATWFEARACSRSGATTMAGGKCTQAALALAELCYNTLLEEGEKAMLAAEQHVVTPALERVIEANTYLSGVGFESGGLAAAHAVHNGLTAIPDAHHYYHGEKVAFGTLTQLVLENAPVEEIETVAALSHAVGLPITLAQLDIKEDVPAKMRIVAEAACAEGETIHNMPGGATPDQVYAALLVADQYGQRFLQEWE
The experiment in a line: Kinetics toward NADH and inhibition by NAD+, crude extract, native GlyDH.

The target in data set [2] is T1, E. coli glycerol dehydrogenase (GlyDH, GldA), native (wild type). In words: Inhibition by product 1,2-propanediol, native GlyDH. It counts as biochemical. Details: made in house; host or cells: E. coli BL21 star (DE3) ΔgldA::Cm with pETTOPO-gldA. Particulars: read-out: loss of maximum activity. Here is the method: (§1) The 3 strains E. coli MG1655 pME101-VB01-gldA, E. coli MG1655 pME101-VB01-gldA*(A160T) and E. coli MG1655 pME101-VB01-gldA*(T120N) were cultivated in minimal medium with 10 g/l glucose as carbon source in 500 ml baffled Erlenmeyer flasks with 50 ml culture medium. The culture was carried out on a rotary shaker at 200 rpm. The temperature of the culture was maintained at 37° C. and the pH of the medium was buffered with MOPS (initial pH 6.8). Expression of the gene on the pME101-VB01 plasmid was induced by adding 100 μM IPTG at the beginning of the culture. The cultures were stopped at mid-exponential phase. The biomass was harvested by centrifugation, the supernatant was discarded and the pellet was stored at −20° C. before use.
(§2) Between 55-65 mg of E. coli biomass were resuspended in 9 ml of 100 mM Potassium phosphate pH 7, 0.1 mM DTT, 0.1 mM pyridoxal 5′-phosphate (PLP) and a protease inhibitor cocktail. Cells were sonicated on ice (Branson sonifier, 70 W) during four cycles of 30 sec with 30 sec intervals. After sonication, cells debris were removed by centrifugation at 12000 g for 30 min at 4° C. The crude extracts were desalted using an Econo-Pac 10 DG column (BioRad).

Data set [3] has as its target T2, E. coli glycerol dehydrogenase (GlyDH, GldA) mutant GlyDH*(A160T) (Escherichia coli, UniProt P0A9S5, A160T).
T2 sequence (P0A9S5 1-367 A160T): T1 sequence (P0A9S5 1-367) with A160T
The experiment in a line: Inhibition by substrate hydroxyacetone (Dixon plot), GlyDH*(A160T). Details: made in house; host or cells: E. coli BL21 star (DE3) ΔgldA::Cm with pETTOPO-gldA*(A160T). In kind it is biochemical. Particulars: crude extract. The protocol:
as §1, §2

The target of data set [4] is GlyDH (glycerol dehydrogenase) of Nishise et al, 1984 (Cellulomonas). Particulars: read-out: Ki (hydroxyacetone), literature; cited from earlier work.
The target of data set [5] is T3, E. coli glycerol dehydrogenase (GlyDH, GldA) mutant GlyDH*(T120N) (Escherichia coli, UniProt P0A9S5, T120N).
T3 sequence (P0A9S5 1-367 T120N): T1 sequence (P0A9S5 1-367) with T120N
The experiment in a line: Inhibition by substrate hydroxyacetone (Dixon plot), GlyDH*(T120N). It counts as biochemical. Details: made in house; host or cells: E. coli BL21 star (DE3) ΔgldA::Cm with pETTOPO-gldA*(T120N). Particulars: crude extract. The protocol:
as §1, §2

Data set [6] has as its system Glycerol dehydrogenase (GlyDH). It counts as biochemical, E. coli. The settings on record: crude extract; hydroxyacetone as substrate.
Experimental: (§3) Glycerol dehydrogenase activity was assayed by measuring the initial rate of NADH oxidation with a spectrophotometer at a wavelength of 340 nm and at a constant temperature of 30° C. […] Control assay (blank), lacking the substrate was run in parallel and the value measured for the control was subtracted to the value measured for the assay to take into account non-specific oxidation of NADH.
(§4) One unit of enzyme activity was defined as the amount of enzyme that consumed 1 μmol substrate per minute under the conditions of the assay. Specific enzyme activity was expressed as units per mg of protein.
(§5) Enzyme kinetics with regards to NADH were realised with increasing concentration of NADH between 0.025 and 0.4 mM.
Substrate in data set [7]: CC(=O)CO
In words: purified protein, by the assay type. The settings on record: other: purified enzyme, pH 6.5, 30° C., 0.1 mM NADH, hydroxyacetone 0.1 to 15 mM.

Data set [8] relates to Glycerol dehydrogenase (GlyDH). It counts as biochemical, E. coli. The settings on record: for Specific activity, Glycolaldehyde: substrate glycolaldehyde; for Specific activity, Glycolaldehyde / Specific activity, Hydroxyacetone / Specific activity, Methyl glyoxal: purified enzyme, pH 6.5, 30° C.; for Specific activity, Hydroxyacetone: substrate hydroxyacetone; for Specific activity, Methyl glyoxal: substrate methyl glyoxal. Here is the method:
The oxidation reaction was carried out in quartz cuvette cells filled with 1 ml of the mixture: 100 mM MES buffer pH 6.5 with 30 mM of ammonium sulphate, 0.1 mM of iron sulphate, 0.1 mM of NADH and around 0.5 μg of purified proteins. […] In all reactions, non enzymatic rates were subtracted from the observed initial reaction rates. Enzyme activities are reported as μmoles of substrate/min/mg of […] and represents averages for at least three purified enzyme preparations.
The purification process designed to purify the glycerol dehydrogenase overexpressed in E. coli is composed of two steps. […] Cell pellets were resuspended in 3 ml of 50 mM HEPES buffer pH 7.5 containing protease inhibitor cocktail (Roche) and homogenized by sonication (at 0° C., under aerobic conditions, in four cycles of 30 s with 2 minutes intervals between each cycle). Cells debris were eliminated by centrifugation (5 min 12000 g) and nucleic acids in cell homogenate were precipitated by a streptomycin sulphate treatment (13.3 mg/ml final concentration, 15 minutes, 0° C.). The streptomycin sulphate treated cell homogenate was harvested by centrifugation (5 min 12000 g), and contaminant proteins of the supernatant were eliminated by ammonium sulphate precipitation at a saturated concentration of 20%, at 4° C., with stirring over one hour. The precipitate was then removed by centrifugation (20 min, 8600 g, 4° C.) and discarded. A further portion of ammonium sulphate at a saturated concentration of 30% was added to the supernatant as previously and then centrifuged 30 minutes at 8600 g 4° C. collecting the precipitate. The precipitate was dissolved in 3 ml of 50 mM Hepes Buffer pH 7.5 with 1M ammonium sulphate before loading 2.5 ml sample onto a hydrophobic interaction chromatography column (Hitrap phenyl sepharose, GEhealthcare) connected to an AKTA purifier system and equilibrated with 50 mM Hepes Buffer pH 7.5 containing 1M ammonium sulphate. After washing with 20 ml of the same buffer, proteins were eluted with a 20 ml linear gradient of 50 mM Hepes Buffer pH 7.5 from 1 M to 0 M of ammonium sulphate. […] The protein concentration and purity were respectively determined with the Bradford reagent and with sodium dodecylsulfate polyacrylamide gel electrophoresis (FIG. 3).
The kinetic parameters were determined with Sigma Plot (Systat Software Inc, San Jose Calif.) by fitting to the Michaelis Menten equation using a non linear regression.

Data set [9] concerns the target T4, Glycerol dehydrogenase (GlyDH) (Escherichia coli, UniProt P0A9S5, A160T).
T4 construct: made in house; host or cells: E. coli MG1655, plasmid pME101-VB01-gldA; crude extract, not purified
It counts as biochemical, E. coli. The settings on record: NAD+ 0.6-1.2-2.5-4 mM.
Experimental: as §3, §4, §5

T4 sequence (P0A9S5 whole entry A160T): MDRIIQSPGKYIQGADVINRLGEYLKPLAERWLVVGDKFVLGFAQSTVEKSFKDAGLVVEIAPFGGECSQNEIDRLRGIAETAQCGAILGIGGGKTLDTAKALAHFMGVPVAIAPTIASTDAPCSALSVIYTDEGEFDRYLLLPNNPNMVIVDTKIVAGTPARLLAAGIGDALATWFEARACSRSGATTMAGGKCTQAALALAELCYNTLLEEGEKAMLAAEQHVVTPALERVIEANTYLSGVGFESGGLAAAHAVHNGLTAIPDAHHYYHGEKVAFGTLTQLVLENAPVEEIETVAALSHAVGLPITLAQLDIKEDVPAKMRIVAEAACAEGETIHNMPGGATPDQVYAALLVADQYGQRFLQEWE

For `NC(=O)c1ccc[n+]([C@@H]2O[C@H](COP(=O)([O-])OP(=O)(O)OC[C@H]3O[C@@H](n4cnc5c(N)ncnc54)[C@H](O)[C@@H]3O)[C@@H](O)[C@H]2O)c1` [NAD+], in [1], the affinity corresponds to a Ki of 0.43 mM.

`CC(O)CO` (centres unmarked) [1,2-propanediol]: in data set [2], the inhibition at 40000 µM turned out to be 50% and the inhibition at 100000 µM amounted to 65%.

Take `CC(=O)CO` [Hydroxyacetone, hydroxyacetone]: the “Ki Hydroxyacetone increase by a factor (vs native)” value in [3] and in data set [5] was “more than 10” each time. In addition, the Ki (as a rule, the equilibrium dissociation constant of an inhibitor or competing ligand from its target) in [4] was 11.6 mM.

B1: E. coli glycerol dehydrogenase (GlyDH, GldA), native (wild type) (Escherichia coli K-12) (protein)
chain: T1 sequence (P0A9S5 1-367)
In [6], B1 gave a Specific activity of 1240 ± 77 nmol/min/mg. For the same molecule, in [7], the Km (commonly the concentration of substrate that gives half-maximal velocity) was 70 ± 20 µM. In addition, in data set [8], the “Specific activity, Glycolaldehyde” value is on record as 148.89 +/− 19.36 U/mg; the “Specific activity, Hydroxyacetone” value is 36.3 +/− 0.88 U/mg; the “Specific activity, Methyl glyoxal” value is on record as 57.77 +/− 3.81 U/mg.

B2: E. coli glycerol dehydrogenase (GlyDH, GldA) mutant GlyDH*(A160T) (Escherichia coli K-12; A160T) (protein)
chain: T1 sequence (P0A9S5 1-367) with A160T
B2 registered a Specific activity in data set [6] of 1140 ± 42 nmol/min/mg. The “Inhibition by NAD+ at the concentrations used” value in [9] is “almost no inhibition”. For the same molecule, in data set [8], the “Specific activity, Glycolaldehyde” value is on record as 167.33 +/− 6.03 U/mg; the “Specific activity, Hydroxyacetone” value is 40.5 +/− 0.85 U/mg; the “Specific activity, Methyl glyoxal” value is 58.27 +/− 2.42 U/mg. Also, in [8] (three substrates, pH 6.5), the “Kinetics compared with native enzyme” value was “no significant differences”.
